Here are results for nine molecules from patent US20120107330A1 (published 2012).

Experiment [1] deals with T1, human serum albumin (HSA, Sigma-Aldrich) (human, UniProt P02768 25-609).
T1 construct: also called human albumin
Nature of the experiment: BIAcore, HSA on CM5 chip. As to the method:
FIG. 23. BIAcore analysis for binding of DOM0100-AlbudAb in-line fusions to human serum albumin (HSA). HSA (Sigma-Aldrich) was coated on a BIAcore CM5 chip using EDC/NHS chemistry according to manufacturer's instructions. Subsequently, the DMS constructs, each consisting N-terminally to C-terminally of an anti-TNFR1 dAb-Linker-AlbudAb and identified in Table 6, were injected at 1 μM over the HSA surface and binding was monitored. […] The corresponding BIAcore trace for each DMS clone is indicated with an arrow.

Experiment [2] addresses T2, mouse serum albumin (MSA, Sigma-Aldrich) (mouse, UniProt P07724 25-608).
T2 construct: also called mouse albumin
Nature of the experiment: BIAcore, MSA on CM5 chip. As to the method: FIG. 22. BIAcore analysis for binding of DOM0100-AlbudAb in-line fusions to mouse serum albumin (MSA). MSA (Sigma-Aldrich) was coated on a BIAcore CM5 chip using EDC/NHS chemistry according to manufacturer's instructions. Subsequently, the DMS constructs, each consisting N-terminally to C-terminally of an anti-TNFR1 dAb-Linker-AlbudAb and identified in Table 6, were injected at 1 μM over the MSA surface and binding was monitored. […] The corresponding BIAcore trace for each DMS clone is indicated with an arrow.
After expression and purification, all constructs were tested on the BIAcore for binding to both mouse and human serum albumin. The off-rates were determined and used to discriminate between the AlbudAbs for their suitability in prolonging the half-life of the fusion molecule. Whereas the linker had little influence on the affinity of the AlbudAb for albumin, a significant difference existed between the dAbs and their albumin affinity. The best AlbudAb for mouse binding was DOM7h-11-15 followed by DOM7m-16 and DOM7h-11-12 (FIG. 22).
A general note: Surface plasmon resonance follows binding to a sensor surface in real time, without labels.

Experiment [3] addresses T3, human TNFR1 on MRC-5 cells (human, UniProt P19438 30-455).
T3 sequence (looked up): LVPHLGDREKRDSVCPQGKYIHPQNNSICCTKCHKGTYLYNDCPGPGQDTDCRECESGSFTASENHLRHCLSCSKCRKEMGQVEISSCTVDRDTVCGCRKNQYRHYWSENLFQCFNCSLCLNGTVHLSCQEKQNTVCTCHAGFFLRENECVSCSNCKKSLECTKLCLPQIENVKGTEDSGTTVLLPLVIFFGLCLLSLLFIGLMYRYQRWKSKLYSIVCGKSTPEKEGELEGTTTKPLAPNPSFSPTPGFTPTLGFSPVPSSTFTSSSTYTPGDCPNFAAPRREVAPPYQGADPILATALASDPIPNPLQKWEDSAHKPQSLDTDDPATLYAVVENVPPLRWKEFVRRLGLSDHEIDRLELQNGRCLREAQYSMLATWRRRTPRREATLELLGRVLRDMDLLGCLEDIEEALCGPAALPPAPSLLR
Nature of the experiment: cell-based or functional assay.

For experiment [4], the target named is T4, human TNFR1 (recombinant, R&D Systems cat no. 636-R1/CF, biotinylated) (human, UniProt P19438 30-211, limits assumed, biotinylated with EZ-Link NHS-LC-LC-biotin).
T4 construct: it is not tied to the BIAcore reagent; also called p55; hTNFR1
T4 sequence (looked up): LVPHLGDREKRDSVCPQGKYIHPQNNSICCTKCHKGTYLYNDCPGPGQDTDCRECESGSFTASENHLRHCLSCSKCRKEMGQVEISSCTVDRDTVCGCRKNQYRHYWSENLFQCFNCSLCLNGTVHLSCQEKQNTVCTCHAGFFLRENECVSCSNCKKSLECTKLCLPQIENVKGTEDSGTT
Nature of the experiment: BIAcore, human TNFR1.

Experiment [5] has as its target T3, human TNFR1 on MRC-5 cells. Nature of the experiment: cell-based or functional assay. This is another data set of the same source.
For experiment [6], the target named is T5, Cynomologus monkey TNFR1 on CYNOM-K1 cells (Cynomolgus monkey, UniProt Q2PFV5 30-455).
T5 sequence: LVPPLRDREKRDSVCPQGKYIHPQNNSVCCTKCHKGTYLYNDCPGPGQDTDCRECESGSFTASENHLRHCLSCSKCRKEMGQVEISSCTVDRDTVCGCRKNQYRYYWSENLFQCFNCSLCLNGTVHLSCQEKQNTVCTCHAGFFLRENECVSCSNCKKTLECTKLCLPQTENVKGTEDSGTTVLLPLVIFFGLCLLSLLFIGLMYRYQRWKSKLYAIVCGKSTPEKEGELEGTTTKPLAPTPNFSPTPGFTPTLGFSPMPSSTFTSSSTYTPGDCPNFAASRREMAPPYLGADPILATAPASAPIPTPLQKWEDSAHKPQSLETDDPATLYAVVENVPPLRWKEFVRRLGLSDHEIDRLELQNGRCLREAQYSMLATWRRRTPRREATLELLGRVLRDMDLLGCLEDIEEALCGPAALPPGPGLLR
The experiment can be described thus: cell-based or functional assay.

Experiment [7] deals with T6, mouse TNFR1 on L929 cells (mouse, UniProt P25118 30-454).
T6 sequence (looked up): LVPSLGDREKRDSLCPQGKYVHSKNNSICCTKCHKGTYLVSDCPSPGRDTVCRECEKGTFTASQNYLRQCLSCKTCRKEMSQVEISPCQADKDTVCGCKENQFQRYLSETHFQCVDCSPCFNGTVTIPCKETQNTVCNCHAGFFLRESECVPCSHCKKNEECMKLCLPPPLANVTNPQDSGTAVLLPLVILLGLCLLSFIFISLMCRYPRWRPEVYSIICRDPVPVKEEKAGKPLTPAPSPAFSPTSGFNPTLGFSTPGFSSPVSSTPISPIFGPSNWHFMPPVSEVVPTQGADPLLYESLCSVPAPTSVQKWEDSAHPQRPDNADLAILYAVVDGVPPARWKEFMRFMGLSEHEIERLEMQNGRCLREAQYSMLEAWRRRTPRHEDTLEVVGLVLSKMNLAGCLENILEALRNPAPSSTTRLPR
Nature of the experiment: cell-based or functional assay.

Experiment [8] deals with T7, mouse TNFR1 (recombinant, R&D Systems cat no. 425-R1-050/CF, biotinylated) (mouse, UniProt P25118 22-212, biotinylated with EZ-Link NHS-LC-LC-biotin).
T7 construct: also called murine TNFR1; biotinylated mouse TNFR1
T7 sequence (looked up): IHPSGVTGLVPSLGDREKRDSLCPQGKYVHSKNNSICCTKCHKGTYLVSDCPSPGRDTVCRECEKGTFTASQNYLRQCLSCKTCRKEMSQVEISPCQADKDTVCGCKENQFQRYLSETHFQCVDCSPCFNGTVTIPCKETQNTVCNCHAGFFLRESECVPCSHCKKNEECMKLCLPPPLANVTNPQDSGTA
Nature of the experiment: BIAcore, mouse TNFR1 on SA chip. From the text: (§1) BIAcore was done to determine the association and dissociation rates of the different dAbs and in that way establish their binding affinity for both human and mouse TNFR1. Experiments were done using biotinylated TNFR1 (R&D Systems), of the respective species, coupled to streptavidin-coated BIAcore chips followed by injection of a concentration range of the dAbs.

The target of experiment [9] is T4, human TNFR1 (recombinant, R&D Systems …). The experiment can be described thus: BIAcore, human TNFR1 on SA chip.
Description: as §1

T1 sequence (P02768 25-609 limits assumed): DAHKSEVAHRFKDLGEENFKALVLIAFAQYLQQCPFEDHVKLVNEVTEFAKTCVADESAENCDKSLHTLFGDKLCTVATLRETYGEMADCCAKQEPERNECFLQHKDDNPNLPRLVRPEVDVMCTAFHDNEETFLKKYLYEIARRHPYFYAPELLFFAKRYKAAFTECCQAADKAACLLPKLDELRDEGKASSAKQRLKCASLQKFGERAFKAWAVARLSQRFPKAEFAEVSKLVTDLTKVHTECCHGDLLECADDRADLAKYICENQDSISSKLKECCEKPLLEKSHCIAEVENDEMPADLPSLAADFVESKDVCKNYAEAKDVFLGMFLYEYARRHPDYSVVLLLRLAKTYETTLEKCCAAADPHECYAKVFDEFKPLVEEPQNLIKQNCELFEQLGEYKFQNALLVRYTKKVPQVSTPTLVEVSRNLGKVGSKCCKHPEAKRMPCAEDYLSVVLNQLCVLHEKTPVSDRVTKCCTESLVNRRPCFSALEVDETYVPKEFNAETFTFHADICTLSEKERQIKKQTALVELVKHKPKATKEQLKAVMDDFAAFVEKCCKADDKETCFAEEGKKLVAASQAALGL

B1: DMS0189 (bispecific antibody)
chain: EVQLLESGGGLVQPGGSLRLSCAASGFTFVKYSMGWVRQAPGKGPEWVSQISNTGDRTYYADSVKGRFTISRDNSKNTLYLQMNSLRAEDTAVYYCAIYTGRWEPFDYWGQGTLVTVSSASTDIQMTQSPSSLSASVGDRVTITCRASRPIGTTLSWYQQKPGKAPKLLILWNSRLQSGVPSRFSGSGSGTDFTLTISSLQPEDFATYYCAQAGTHPTTFGQGTKVEIKRAAAEQKLISEEDLN
notes: anti-TNFR1 dAb / AlbudAb in-line fusion
One may read the koff as the rate constant with which the complex falls apart. On to B1, for which the results for the koff in experiment [1] and in experiment [2] were 0.017 s⁻¹ and 0.13 s⁻¹, respectively.

B2: DMS0190 (bispecific antibody)
chain: EVQLLESGGGLVQPGGSLRLSCAASGFTFVKYSMGWVRQAPGKGPEWVSQISNTGDRTYYADSVKGRFTISRDNSKNTLYLQMNSLRAEDTAVYYCAIYTGRWEPFDYWGQGTLVTVSSASTSGPSDIQMTQSPSSLSASVGDRVTITCRASRPIGTTLSWYQQKPGKAPKLLILWNSRLQSGVPSRFSGSGSGTDFTLTISSLQPEDFATYYCAQAGTHPTTFGQGTKVEIKRAAAEQKLISEEDLN
notes: as for B1
On to B2, for which the off-rate constant (koff) came out at 0.019 s⁻¹ in experiment [1] and 0.16 s⁻¹ in [2].

B3: DOM1h-574-18 (other)
VH: EVQLLESGGGLVQPGGSLRLSCAASGFTFGKYSMGWVRQAPGKDLEWVSQISNTGDRTYYADSVKGRFTISRDNSKNTLYLQMNSLRAEDTAVYYCAIYTGRWEPFDYWGQGTLVTVSS
notes: VH dAb
The term Kd denotes the concentration at which binding is half-saturated. For the molecule B3, in [3], the “MRC-5 ND50 (TNFα-mediated IL-8 release)” value was 17 nM. Also, in [4], the Kd was determined as 4.1 nM.

B4: DOM1h-574-109 (other)
VH: EVQLLESGGGLVQPGGSLRLSCAASGFTFVKYSMGWVRQAPGKGLEWVSQISDTADRTYYAHSVKGRFTISRDNSKNTLYLQMNSLRAEDTAVYYCAIYTGRWVPFEYWGQGTLVTVSS
notes: VH dAb
By kon is commonly meant a measure of how fast the partners come together. As to B4, the “Human MRC5 ND50” value in experiment [5] is 1.8 nM. Besides, the “Cynomologus CYNOM-K1 ND50” value in [6] worked out at 2.3 nM. Moreover, the “Mouse L929 ND50” value in [7] was determined as 20 nM. In experiment [8], the dissociation constant (Kd) was found to be 2.8 nM, the koff was 0.00033 s⁻¹ and the kon is 120000 M⁻¹ s⁻¹. In experiment [9], the Kd amounted to 0.23 nM, the koff is 5.5e-05 s⁻¹ and the kon turned out to be 240000 M⁻¹ s⁻¹.

B5: DOM1h-574-156 (other)
VH: EVQLLESGGGLVQPGGSLRLSCAASGFTFFKYSMGWVRQAPGKGLEWVSQISDTADRTYYAHSVKGRFTISRDNSKNTLYLQMNSLRAEDTAVYYCAIYTGRWVPFEYWGQGTLVTVSS
notes: VH dAb
B5: the “Human MRC5 ND50” value in experiment [5] was found to be 0.9 nM. Also, the “Mouse L929 ND50” value in [7] was determined as 22 nM. In experiment [8], the Kd was found to be 2.1 nM, the dissociation rate constant (koff) came out at 0.0003 s⁻¹ and the kon was determined as 140000 M⁻¹ s⁻¹. Moreover, in [9], the Kd was 0.15 nM, the koff came out at 4.3e-05 s⁻¹ and the kon stood at 300000 M⁻¹ s⁻¹.

B6: DOM1h-574-139 (other)
VH: EVQLLESGGGLVQPGGSLRLSCAASGFTFLKYSMGWVRQAPGKGLEWVSQISDTADRTYYAHSVKGRFTISRDNSKNTLYLQMNSLRAEDTAVYYCAIYTGRWAPFEYWGQGTLVTVSS
notes: VH dAb
For B6, in experiment [5], the “Human MRC5 ND50” value turned out to be 1.1 nM. The “Cynomologus CYNOM-K1 ND50” value in experiment [6] was 1.8 nM. For the same molecule, the “Mouse L929 ND50” value in [7] is 28 nM. Besides, in experiment [8], the dissociation constant (Kd) was 4.4 nM, the koff is 0.0003 s⁻¹ and the kon amounted to 70000 M⁻¹ s⁻¹. Besides, in [9], the Kd worked out at 0.27 nM, the koff worked out at 3.7e-05 s⁻¹ and the kon was 140000 M⁻¹ s⁻¹.

B7: DOM1h-574-162 (other)
VH: EVQLLESGGGLVQPGGSLRLSCAASGFTFFKYSMGWVRQAPGKGLEWVSQISDTADRTYYSHSVKGRFTISRDNSKNTLYLQMNSLRAEDTAVYYCAIYTGRWVPFEYWGQGTLVTVSS
notes: VH dAb
Regarding B7, the “Human MRC5 ND50” value in experiment [5] came out at 1.2 nM. Further, the “Mouse L929 ND50” value in [7] was determined as 27 nM. Besides, in experiment [8], the Kd was 2.5 nM, the koff amounted to 0.00034 s⁻¹ and the kon turned out to be 140000 M⁻¹ s⁻¹. For the same molecule, in [9], the Kd was 0.15 nM, the koff was 4.4e-05 s⁻¹ and the kon was determined as 290000 M⁻¹ s⁻¹.

B8: DMS0192 (bispecific antibody)
chain: EVQLLESGGGLVQPGGSLRLSCAASGFTFVKYSMGWVRQAPGKGPEWVSQISNTGDRTYYADSVKGRFTISRDNSKNTLYLQMNSLRAEDTAVYYCAIYTGRWEPFDYWGQGTLVTVSSASTSGPSDIQMTQSPSSLSASVGDRVTITCRASQSIIKHLKWYQQKPGKAPKLLIYGASRLQSGVPSRFSGSGSGTDFTLTISSLQPEDFATYYCQQGARWPQTFGQGTKVEIKRAAAEQKLISEEDLN
notes: as for B1
Regarding B8, the binding result in experiment [1] is listed as “no binding (tested: 1 µM)”. This molecule had a koff in experiment [2] of 0.09 s⁻¹.

B9: DMS0191 (bispecific antibody)
chain: EVQLLESGGGLVQPGGSLRLSCAASGFTFVKYSMGWVRQAPGKGPEWVSQISNTGDRTYYADSVKGRFTISRDNSKNTLYLQMNSLRAEDTAVYYCAIYTGRWEPFDYWGQGTLVTVSSASTDIQMTQSPSSLSASVGDRVTITCRASQSIIKHLKWYQQKPGKAPKLLIYGASRLQSGVPSRFSGSGSGTDFTLTISSLQPEDFATYYCQQGTRWPQTFGQGTKVEIKRAAAEQKLISEEDLN
notes: as for B1
For B9, in experiment [1], the binding result is recorded as “no binding (tested: 1 µM)”. In experiment [2], this molecule yielded a koff of 0.11 s⁻¹.
